From article PMC12523770

Target: MyD88 (myeloid differentiation primary response 88), endogenous in mouse bone marrow-derived macrophages (mouse (endogenous in BMDMs)), P22366
Assay: cross-linking; WT BMDMs stimulated with 1 µg/mL poly(I:C) for the indicated times (or primed with LPS, positive control); cleared freeze-thaw lysate with 2 mM DSS, 2 h, room temperature; SDS-PAGE, anti-MyD88 blot
Conditions: remark: other sources report otherwise

B1: MyD88 (myeloid differentiation primary response 88), endogenous in mouse bone marrow-derived macrophages, P22366 1-296 (natural protein)
chain: MSAGDPRVGSGSLDSFMFSIPLVALNVGVRRRLSLFLNPRTPVAADWTLLAEEMGFEYLEIRELETRPDPTRSLLDAWQGRSGASVGRLLELLALLDREDILKELKSRIEEDCQKYLGKQQNQESEKPLQVARVESSVPQTKELGGITTLDDPLGQTPELFDAFICYCPNDIEFVQEMIRQLEQTDYRLKLCVSDRDVLPGTCVWSIASELIEKRCRRMVVVVSDDYLQSKECDFQTKFALSLSPGVQQKRLIPIKYKAMKKDFPSILRFITICDYTNPCTKSWFWTRLAKALSLP
stoichiometry N: 2
